Tested on: sqt1 mutant cells
Test: in vivo ribosomal protein solubility assay
Format: cell-based, S. cerevisiae
Conditions: expressed for 20 min from copper-inducible promoter; in sqt1.E315A and sqt1.E110A/D420A mutant cells; 200,000g 1 h
Experimental: The sqt1 mutant cells, either containing empty vector or a centromeric plasmid expressing Sqt1 from the ADH1 promoter, were grown in a volume of 100 ml to an OD600 of ∼0.7 and expression of C-terminally 2xHA-tagged Rpl10 was induced for 20 min from the CUP1 promoter with 500 μM copper sulfate. After harvesting, cells were lysed with glass beads in a buffer containing 50 mM Tris-HCl (pH 7.5), 100 mM NaCl, 1.5 mM MgCl2, 5% glycerol and 0.1% NP-40, and cell extracts were centrifuged for 3 min at 3,000 r.p.m. Then, total cell extracts, 10 A260 units in a final volume of 500 μl, were subjected to centrifugation at 200,000g for 1 h. Pellets were resuspended in 100 μl lysis buffer and equal amounts of the total extracts (T), soluble extracts (S) and pellet fractions (P) were analysed by SDS–polyacrylamide gel electrophoresis and western blotting using an anti-HA antibody.
Supplementary Figure 9 Sqt1 is required for the soluble expression of Rpl10 in yeast.
Expression of C-terminally 2xHA-tagged Rpl10 (Rpl10-2xHA) was induced for 20 min from the CUP1 promoter with 500 µM copper sulfate in sqt1.E315A or sqt1.E110A/D420A mutant cells containing empty vector (vector) or a plasmid expressing Sqt1 from the constitutive ADH1 promoter (SQT1). […]

B1: Rpl10-2xHA: C-terminally 2xHA-tagged Rpl10 (protein)
chain: MARRPARCYRYQKNKPYPKSRYNRAVPDSKIRIYDLGKKKATVDEFPLCVHLVSNELEQLSSEALEAARICANKYMTTVSGRDAFHLRVRVHPFHVLRINKMLSCAGADRLQQGMRGAWGKPHGLAARVDIGQIIFSVRTKDSNKDVVVEGLRRARYKFPGQQKIILSKKWGFTNLDRPEYLKKREAGEVKDDGAFVKFLSKKGSLENNIREFPEYFAAQA
modifications: left off: 2xHA, C-terminal, kept
notes: C-terminally 2xHA-tagged Rpl10
solubility of newly synthesized Rpl10-2xHA: strongly reduced
